B1: H1.59 L1 XENP34515 (antibody, V domains shown)
VH: QLQVQESGPGLVKPSETLSLTCTVSGGSISNSYFSWGWIRQPPGKGLEWIGSFYYGENTYYNPSLKSRATISIDTSKSQFSLKLSSVTAADTAVYYCPRGPTMIRGVIDSWGQGTLVTVSS
VL: EIVLTQSPATLSLSPGERATLSCRASQSVRSYLAWYQQKPGQAPRLLIYDASNRATGIPARFSGSGSGTDFTLTISSLEPEDFAVYYCQQRSNWPPTFGQGTKVEIK
B2: H1.62 L1 XENP34518 (antibody, V domains shown)
VH: B1 VH with N58K, Y60F
VL: B1 VL
B3: H1.68 L1 XENP34524 (antibody, V domains shown)
VH: B1 VH with N58K, K66E
VL: B1 VL
B4: H1.58 L1 XENP34514 (antibody, V domains shown)
VH: B1 VH with N58D
VL: B1 VL
B5: H1.40 L1 XENP34496 (antibody, V domains shown)
VH: B1 VH with I50V, N58K
VL: B1 VL
B6: H1.55 L1 XENP34511 (antibody, V domains shown)
VH: B1 VH with G56S, N58K
VL: B1 VL
B7: H1.57 L1 XENP34513 (antibody, V domains shown)
VH: B1 VH with E57S, N58K
VL: B1 VL
B8: H1.65 L1 XENP34521 (antibody, V domains shown)
VH: B1 VH with N58K, Y60S
VL: B1 VL
B9: H1.45 L1 XENP34501 (antibody, V domains shown)
VH: B1 VH with S52Y, N58K
VL: B1 VL
B10: H1.73 L1 XENP34529 (antibody, V domains shown)
VH: B1 VH with N58K, I73V
VL: B1 VL
B11: H1.46 L1 XENP34502 (antibody, V domains shown)
VH: B1 VH with F53I, N58K
VL: B1 VL
B12: H1.51 L1 XENP34507 (antibody, V domains shown)
VH: B1 VH with Y54N, N58K
VL: B1 VL
B13: H1.70 L1 XENP34526 (antibody, V domains shown)
VH: B1 VH with N58K, S67G
VL: B1 VL
B14: H1.53 L1 XENP34509 (antibody, V domains shown)
VH: B1 VH with Y55H, N58K
VL: B1 VL
B15: H1.74 L1 XENP34530 (antibody, V domains shown)
VH: B1 VH with N58K, S78N
VL: B1 VL
B16: H1.43 L1 XENP34499 (antibody, V domains shown)
VH: B1 VH with S52T, N58K
VL: B1 VL
B17: H1.39 L1 XENP34495 (antibody, V domains shown)
VH: B1 VH with P42H, N58K
VL: B1 VL
B18: H1.76 L1 XENP34532 (antibody, V domains shown)
VH: B1 VH with N58K, A90E
VL: B1 VL
B19: H1.41 L1 XENP34497 (antibody, V domains shown)
VH: B1 VH with S52E, N58K
VL: B1 VL
B20: H1.66 L1 XENP34522 (antibody, V domains shown)
VH: B1 VH with N58K, N62A
VL: B1 VL
B21: H1.64 L1 XENP34520 (antibody, V domains shown)
VH: B1 VH with N58K, Y60N
VL: B1 VL
B22: H1.49 L1 XENP34505 (antibody, V domains shown)
VH: B1 VH with Y54H, N58K
VL: B1 VL
B23: H1.72 L1 XENP34528 (antibody, V domains shown)
VH: B1 VH with N58K, A69V
VL: B1 VL
B24: H1.71 L1 XENP34527 (antibody, V domains shown)
VH: B1 VH with N58K, A69F
VL: B1 VL
B25: H1.67 L1 XENP34523 (antibody, V domains shown)
VH: B1 VH with N58K, N62S
VL: B1 VL
B26: H1.44 L1 XENP34500 (antibody, V domains shown)
VH: B1 VH with S52V, N58K
VL: B1 VL
B27: H1.63 L1 XENP34519 (antibody, V domains shown)
VH: B1 VH with N58K, Y60H
VL: B1 VL
B28: H1.60 L1 XENP34516 (antibody, V domains shown)
VH: B1 VH with N58S
VL: B1 VL
B29: H1.47 L1 XENP34503 (antibody, V domains shown)
VH: B1 VH with F53V, N58K
VL: B1 VL
B30: H1.69 L1 XENP34525 (antibody, V domains shown)
VH: B1 VH with N58K, K66Q
VL: B1 VL
B31: H1 L1.30 XENP34593 (antibody, V domains shown)
VH: B1 VH with N58K
VL: B1 VL with D70E
B32: H1 L1.24 XENP34587 (antibody, V domains shown)
VH: B1 VH with N58K
VL: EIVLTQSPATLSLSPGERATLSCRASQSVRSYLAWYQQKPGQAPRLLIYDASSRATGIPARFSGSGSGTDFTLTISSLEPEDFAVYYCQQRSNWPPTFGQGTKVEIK
B33: H1 L1.27 XENP34590 (antibody, V domains shown)
VH: B1 VH with N58K
VL: B1 VL with G57S
B34: H1 L1.11 XENP34574 (antibody, V domains shown)
VH: B1 VH with N58K
VL: B1 VL with S31N
B35: H1 L1.34 XENP34597 (antibody, V domains shown)
VH: B1 VH with N58K
VL: B1 VL with E79Q, P80S
B36: H1 L1.23 XENP34586 (antibody, V domains shown)
VH: B1 VH with N58K
VL: B1 VL with N53D
B37: H1 L1.19 XENP34582 (antibody, V domains shown)
VH: B1 VH with N58K
VL: B1 VL with Q42L
B38: H1 L1.31 XENP34594 (antibody, V domains shown)
VH: B1 VH with N58K
VL: B1 VL with S77R
B39: H1 L1.29 XENP34592 (antibody, V domains shown)
VH: B1 VH with N58K
VL: B1 VL with A60D
B40: H1 L1.43 XENP34606 (antibody, V domains shown)
VH: B1 VH with N58K
VL: B1 VL with S92N
B41: H1 L1.38 XENP34601 (antibody, V domains shown)
VH: B1 VH with N58K
VL: B1 VL with R91S
B42: H1 L1.20 XENP34583 (antibody, V domains shown)
VH: B1 VH with N58K
VL: B1 VL with D50E
B43: H1 L1.33 XENP34596 (antibody, V domains shown)
VH: B1 VH with N58K
VL: B1 VL with P80S
B44: H1 L1.37 XENP34600 (antibody, V domains shown)
VH: B1 VH with N58K
VL: B1 VL with R91K

Residue numbers refer to the chain shown, from its start.

The first test deals with T1, human TGFßRII (antigen of the Octet experiments) (human, UniProt P37173 23-166). The test can be described thus: BLI (Octet). (BLI is a label-free optical method that tracks binding on a fibre tip over time.)
T1 sequence (P37173 23-166): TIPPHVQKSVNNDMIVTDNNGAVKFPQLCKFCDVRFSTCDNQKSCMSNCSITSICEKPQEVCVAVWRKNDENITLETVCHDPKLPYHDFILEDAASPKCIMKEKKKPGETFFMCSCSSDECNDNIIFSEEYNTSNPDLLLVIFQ
Turning to B1, the Kd (commonly the concentration at which binding is half-saturated) was 0.507 nM.
In the case of B2, the Kd is 1.35 nM.
B3 returned a Kd of 1.5 nM. This Kd and that of the molecule before are within 1.5-fold of each other.
The same measure, in the same setting: then B4, with 2.49 nM; and B5, with 0.338 nM.
B6 registered a Kd of 0.348 nM.
Take B7: binding was characterised by a dissociation constant (Kd) of 7.71 nM. This Kd lies about 22-fold higher than the previous one.
In turn, B8 gave a Kd of 15.1 nM. This Kd lies about 2-fold higher than the previous one.
B9: the Kd turned out to be 1.01 nM.
Same read-out and setting: the result for B10 reads 0.713 nM.
On the same count and under the same terms, then B11, with 3.2 nM.
Same read-out and setting: then B12, with 35.6 nM.
For the molecule B13, the affinity, expressed as Kd, was 0.789 nM.
On the same count and under the same terms, then B14, with 0.366 nM; and B15, with 0.771 nM; and B16, with 0.627 nM.
Turning to B17, the affinity, expressed as Kd, was 0.425 nM.
The same measure, in the same setting: the result for B18 reads 0.829 nM.
For the molecule B19, the Kd was 18.9 nM.
Take B20: binding was characterised by a dissociation constant (Kd) of 0.623 nM.
The same measure, in the same setting: the result for B21 reads 5.37 nM; that for B22, 0.338 nM.
Still for that read-out and setting: then B23, with 0.42 nM; and B24, with 0.588 nM; and B25, with 1.95 nM.
As for B26, the Kd is 2.95 nM. This Kd lies about 1.5-fold higher than the previous one.
The same measure, in the same setting: then B27, with 5.28 nM.
The molecule B28 had a Kd of 3.86 nM.
Same read-out and setting: then B29, with 0.677 nM; and B30, with 1.41 nM.

The target in the next test is T1, human TGFßRII (antigen of the Octet …). The test can be described thus: BLI (Octet). The source holds these as a separate data set.
B31 came in with a Kd of 0.668 nM.
The same measure, in the same setting: then B32, with 0.644 nM.
Still for that read-out and setting: then B33, with 0.92 nM.
For the molecule B34, the Kd worked out at 0.597 nM. This Kd lies about 1.5-fold lower than the previous one.
In turn, B35 had a Kd of 1.61 nM.
The same measure, in the same setting: then B36, with 0.479 nM.
Consider B37, for which binding was put at a Kd of 0.905 nM.
The same measure, in the same setting: then B38, with 0.706 nM; and B39, with 0.589 nM.
Still for that read-out and setting: the result for B40 reads 1.08 nM; that for B41, 24.5 nM.
Same read-out and setting: the result for B42 reads 2.24 nM; that for B43, 0.873 nM; that for B44, 2.87 nM.

(Values after patent US20220144956A1 (published 2022).)
